Sequences and labels used below:
T1: GFP-Rad55-Rad57 complex (His6-GFP-Rad55 and FLAG-Rad57) (S. cerevisiae, UniProt P38953 1-406; P25301 1-460)
T1 sequence (looked up) 1: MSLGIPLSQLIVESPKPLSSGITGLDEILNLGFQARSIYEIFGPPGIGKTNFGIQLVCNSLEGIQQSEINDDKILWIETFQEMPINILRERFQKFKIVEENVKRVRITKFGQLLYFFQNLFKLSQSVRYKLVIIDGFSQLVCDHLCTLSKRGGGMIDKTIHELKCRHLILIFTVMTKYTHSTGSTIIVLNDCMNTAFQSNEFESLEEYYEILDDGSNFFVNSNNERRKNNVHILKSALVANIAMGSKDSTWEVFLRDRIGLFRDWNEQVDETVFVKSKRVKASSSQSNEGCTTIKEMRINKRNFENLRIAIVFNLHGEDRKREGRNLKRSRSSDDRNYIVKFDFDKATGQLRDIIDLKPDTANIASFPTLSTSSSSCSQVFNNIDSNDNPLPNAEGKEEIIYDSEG
T1 sequence (looked up) 2: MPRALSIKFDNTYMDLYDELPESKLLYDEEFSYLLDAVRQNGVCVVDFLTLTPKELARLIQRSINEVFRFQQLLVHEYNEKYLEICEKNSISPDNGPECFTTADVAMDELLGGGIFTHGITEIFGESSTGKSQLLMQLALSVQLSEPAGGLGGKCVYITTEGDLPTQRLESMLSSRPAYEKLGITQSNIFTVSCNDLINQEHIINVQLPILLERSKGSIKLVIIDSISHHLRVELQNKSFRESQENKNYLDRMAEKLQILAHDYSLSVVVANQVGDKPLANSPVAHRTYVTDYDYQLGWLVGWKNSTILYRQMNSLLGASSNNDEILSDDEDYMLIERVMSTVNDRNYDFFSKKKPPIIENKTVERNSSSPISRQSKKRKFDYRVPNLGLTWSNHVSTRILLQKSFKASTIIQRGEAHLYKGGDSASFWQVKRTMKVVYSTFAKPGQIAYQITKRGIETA

B1: Rad51 (natural protein, S. cerevisiae, UniProt P25454 1-400, looked up)
chain: MSQVQEQHISESQLQYGNGSLMSTVPADLSQSVVDGNGNGSSEDIEATNGSGDGGGLQEQAEAQGEMEDEAYDEAALGSFVPIEKLQVNGITMADVKKLRESGLHTAEAVAYAPRKDLLEIKGISEAKADKLLNEAARLVPMGFVTAADFHMRRSELICLTTGSKNLDTLLGGGVETGSITELFGEFRTGKSQLCHTLAVTCQIPLDIGGGEGKCLYIDTEGTFRPVRLVSIAQRFGLDPDDALNNVAYARAYNADHQLRLLDAAAQMMSESRFSLIVVDSVMALYRTDFSGRGELSARQMHLAKFMRALQRLADQFGVAVVVTNQVVAQVDGGMAFNPDPKKPIGGNIMAHSSTTRLGFKKGKGCQRLCKVVDSPCLPEAECVFAIYEDGVGDPREEDE
B2: Rad51-K191R (natural protein, S. cerevisiae, UniProt P25454 1-400, looked up)
chain: B1 chain with K191R
B3: Hed1-GFP (natural protein, S. cerevisiae, UniProt Q03937 1-162, looked up)
chain: MQQRSNRRSCSYIPLGVHNNAEKSLCTEVAPARKNKRSITTSPIVNINVVERRLFNLELEKQQLRAKNLSENTGGGSPNGGAYLDAKKGVREQDQYQGGPSKELDRLQPPPSMKKSPPRKKKSLKDLIYETNKTFYQVDSNKVKYKVGLSKKQLLPSKTVDN

Assay [1] deals with T1, GFP-Rad55-Rad57 complex (His6-GFP-Rad55 …). Briefly: single-molecule ssDNA curtain.
The target of the assay “Rad51” is B1. Briefly: single-molecule ssDNA curtain.

Residue numbers refer to the chain shown, from its start. Names may count otherwise.

As for B1, the koff in assay [1] was found to be 0.00758 s⁻¹. On the same count and under the same terms, in the case of B2 it was 0.0058 s⁻¹.

Take B3: in the assay with Rad51, the binding result is listed as “binds”.

The values above are taken from paper PMC8262405 (Molecular cell, 2021).
